Experimental data taken from patent US10889629B2, “Transfected T-cells and T-cell receptors for use in immunotherapy against cancers” (IMMATICS BIOTECHNOLOGIES GMBH, priority 2016, dated 2021).
Entries after “also recorded” stand apart in the source; their conditions may differ.

B1: R7P1D5: TCR, alpha chain SEQ ID NO:55 and beta chain SEQ ID NO:63, MAG-003-specific, from HLA-A2 positive donor (protein, listed as Homo sapiens)
alpha: MKTFAGFSFLFLWLQLDCMSRGEDVEQSLFLSVREGDSSVINCTYTDSSSTYLYWYKQEPGAGLQLLTYIFSNMDMKQDQRLTVLLNKKDKHLSLRIADTQTGDSAIYFCAEYSSASKIIFGSGTRLSIRPNIQNPDPAVYQLRDSKSSDKSVCLFTDFDSQTNVSQSKDSDVYITDKTVLDMRSMDFKSNSAVAWSNKSDFACANAFNNSIIPEDTFFPSPESSCDVKLVEKSFETDTNLNFQNLSVIGFRILLLKVAGFNLLMTLRLWSS
beta: MGSWTLCCVSLCILVAKHTDAGVIQSPRHEVTEMGQEVTLRCKPISGHDYLFWYRQTMMRGLELLIYFNNNVPIDDSGMPEDRFSAKMPNASFSTLKIQPSEPRDSAVYFCASRANTGELFFGEGSRLTVLEDLKNVFPPEVAVFEPSEAEISHTQKATLVCLATGFYPDHVELSWWVNGKEVHSGVSTDPQPLKEQPALNDSRYCLSSRLRVSATFWQNPRNHFRCQVQFYGLSENDEWTQDRAKPVTQIVSAEAWGRADCGFTSESYQQGVLSATILYEILLGKATLYAVLVSALVLMAMVKRKDSRG
B2: R10P2G12: TCR, alpha chain SEQ ID NO:71 and beta chain SEQ ID NO:79, MAG-003-specific (protein, listed as Homo sapiens)
alpha: MLTASLLRAVIASICVVSSMAQKVTQAQTEISVVEKEDVTLDCVYETRDTTYYLFWYKQPPSGELVFLIRRNSFDEQNEISGRYSWNFQKSTSSFNFTITASQVVDSAVYFCALSEGNSGNTPLVFGKGTRLSVIANIQNPDPAVYQLRDSKSSDKSVCLFTDFDSQTNVSQSKDSDVYITDKTVLDMRSMDFKSNSAVAWSNKSDFACANAFNNSIIPEDTFFPSPESSCDVKLVEKSFETDTNLNFQNLSVIGFRILLLKVAGFNLLMTLRLWSS
beta: MGIRLLCRVAFCFLAVGLVDVKVTQSSRYLVKRTGEKVFLECVQDMDHENMFWYRQDPGLGLRLIYFSYDVKMKEKGDIPEGYSVSREKKERFSLILESASTNQTSMYLCASSLSSGSHQETQYFGPGTRLLVLEDLKNVFPPEVAVFEPSEAEISHTQKATLVCLATGFYPDHVELSWWVNGKEVHSGVSTDPQPLKEQPALNDSRYCLSSRLRVSATFWQNPRNHFRCQVQFYGLSENDEWTQDRAKPVTQIVSAEAWGRADCGFTSESYQQGVLSATILYEILLGKATLYAVLVSALVLMAMVKRKDSRG

Assays:
HLA-A*0201 molecule = HLA-A*0201 molecule (Homo sapiens, UniProt P04439, D140Y/D185E/D98H/E176V/E277Q/G131W/G231S/I119V/I121R/I166T/I218V/L300P/L318F/N151K/N90K/P208A/P217A/Q86G/Q94H/R138H/R169H/T345S); details: cited from earlier work
[1] = system: human non-small cell cancer cell line, H1755 (NCI-H1755); assay: IFNγ release, TCR-expressing CD8+ T-cells co-incubated with H1755; assay type: cell-based; details: for T-cell activation (IFN-γ release): Example 6, NCI-H1755 expressing HLA-A*02 and MAGEA4
Description: (§1) To determine efficacy of T-cells expressing TCRs described herein, primary CD8+ T-cells electroporated with RNA of the TCRs R7P1 D5, R20P1H7 and R10P2G12 were co-incubated with different human cancer cell lines, e.g., A-375 (human melanoma cell line, which is positive for HLA-A2 and MAG-003 expression), T98G (human glioblastoma cell line, which is HLA-A2-positive and MAG-003-negative), and SK-BR-3 (human breast cancer cell line, which is HLA-A2-negative and MAG-003-negative), followed by IFNγ release assay.
(§2) TCRs of interest were expressed in human T cells via RNA electroporation and the T cells were assessed for IFN-γ release after co-culture with different target cells, such as T2 cells loaded with different peptides as well as tumor cell lines and primary cells from healthy tissues. T-cell activation data are shown in absolute IFN-γ levels or a normalized way as indicated below.
(§3) Efficacy of CD8+ T cells expressing TCRs R7P1 D5, R10P2G12 and R20P1H7 was determined by T cell activation studies (IFN-γ release) using different tumor cell lines as target cells. The characterization of the safety profile of TCRs of interest was approached by testing the potential activation of TCR-expressing T cells upon co-culture with isolated primary cell types from healthy tissues and induced pluripotent stem cell (iPSC)-derived cell types from HLA-A*02-positive donors (Table 13). Cell types were selected in a manner to cover most of the critical organs like e.g. brain, heart and liver and different cell types as epithelium, endothelium or smooth muscle. Tumor cell lines were analyzed side-by-side as positive and negative controls.
(§4) Normalization Method for IFNγ Release: Meannorm(TCRoi;co)=[mean(TCRoi;co)−mean(TCRoi;effector only)]−[mean(mock;co)−mean(mock;effector only)]

[2] = system: SK-BR-3 (human breast cancer cell line, HLA-A2-negative and MAG-003-negative); assay: IFNγ release, TCR-expressing CD8+ T-cells co-incubated with SK-BR-3; assay type: cell-based; details: Example 4, SK-BR-3, compared with effector cell only control
Description: as §1

[3] = system: A-375 (human melanoma cell line, positive for HLA-A2 and MAG-003 expression); assay: IFNγ release, TCR-expressing CD8+ T-cells co-incubated with A-375; assay type: cell-based; details: for IFNγ release: Example 4, A-375, HLA-A2-positive and MAG-003-positive; for T-cell activation (IFN-γ release): Example 6, A-375 expressing HLA-A*02 and MAGEA4
Description: as §1, §2, §3, §4

MHC/NYESO1-001 tetramer = assay: Tetramer staining of TCR-RNA-electroporated CD8+ T-cells, MHC/NYESO1-001 control tetramer; assay type: binding, human
Source text: (§5) FIG. 8 show MHC/MAG-003 tetramer or MHC/NYESO1-001 tetramer staining of CD8+ T-cells electroporated with alpha and beta chain RNA of TCRs R7P1 D5, R20P1H7 and R10P2G12 (Table 2), respectively. CD8+ T-cells electroporated with RNA of 1G4 TCR that specifically binds to MHC/NYESO1-001 complex and mock electroporated CD8+ T-cells served as controls.
(§6) T-cell activation was further confirmed using a tetramer staining technique to detect MHC/MAG-003-binding activated cytotoxic T-cells. As shown in FIG. 8 and Table 11, a higher percentage of TCR-expressing CD8+ T-cells were stained positive fluorescent-labeled MHC/MAG-003 tetramer than that with MHC/NYESO1-001 control tetramer or mock control. […] The alpha and beta chains of TCR 1G4 are shown in SEQ ID NO:89 and 90, respectively: […]

[4] = system: HLA-A*02 positive cell types from healthy tissues; assay: Safety: IFN-γ release upon co-culture with primary and iPSC-derived cell types from healthy tissues; assay type: cell-based, human; details: E:T ratio 1:1, 20 h, ELISA, normalized
Source text: FIG. 13 T cells transfected with RNA coding for TCR R7P1 D5, R10P2G12, R20P1H7, mock or the control TCR 1G4 (SEQ ID NO:X) were co-cultured with different primary human healthy tissue cells (see table 13 for abbreviations), the target negative tumor cell line MCF-7 and the MAGEA4- and NY-ESO1-positive cell lines A-375 and NCI-H1755. TCRs R7P1D5, R10P2G12, R20P1H7 and 1G4 expression in T cells was achieved by electroporation using an RNA vector. […] E:T ratio 1:1, 20,000 cells each, mean of IFN-γ release after 20 h from replicates is shown as measured by ELISA. Error bars indicate standard deviations. Results were normalized by subtraction of IFN-γ release from TCR-transfected T cells only and IFN-γ release due to co-culture of Target cells and T cells not expressing TCR of interest.
as §2, §3, §4
The respective CVnorm was calculated: CVnorm(TCRoi;co)=[CV(TCRoi;co)^2+CV(TCRoi;effector only)^2+CV(mock;co)^2+CV(mock;effector only)^2]^[½] TCRoi=effector cells expressing TCR of interest Mock=effector cells without exogenous TCR expression Co=effector cells co-cultured with target cells Effector only=effector cells not co-cultured Mean(norm)=mean IFNγ release (normalized) CV(norm)=coefficient of variation (normalized) Results: […]

MHC/MAG-003 tetramer = MHC/MAG-003 tetramer (Homo sapiens, UniProt P04439+P43358, D140Y/D185E/D98H/E176V/E277Q/G131W/G231S/I119V/I121R/I166T/I218V/N151K/N90K/P208A/P217A/Q86G/Q94H/R138H/R169H); assay: Tetramer staining of TCR-RNA-electroporated CD8+ T-cells, MHC/MAG-003 tetramer; assay type: binding
Source text: as §5, §6

[5] = system: T98G (human glioblastoma cell line, HLA-A2-positive and MAG-003-negative); assay: IFNγ release, TCR-expressing CD8+ T-cells co-incubated with T98G; assay type: cell-based; details: Example 4, T98G, compared with effector cell only control
Description: as §1

MHC/MAG-003 complex = biological target: T1, MHC/MAG-003 complex (Homo sapiens, UniProt P04439+P43358, D140Y/D185E/D98H/E176V/E277Q/G131W/G231S/I119V/I121R/I166T/I218V/L300P/L318F/N151K/N90K/P208A/P217A/Q86G/Q94H/R138H/R169H/T345S); assay: IFN-γ release assay: TCR-RNA-electroporated CD8+ T-cells co-incubated with peptide-loaded target cells; assay type: cell-based; details: target peptide (MAG-003) titration, IFN-γ release
T1 construct: endogenous in cells
Description: In another aspect, to obtain T-cells expressing TCRs of the present description, TCR RNAs were synthesized by techniques described in the art, e.g., in vitro transcription systems. The in vitro-synthesized TCR RNAs were then introduced into primary CD8+ T-cells obtained from healthy donors by electroporation to re-express tumor specific TCR-alpha and/or TCR-beta chains.
To determine specificity and affinity of TCRs, the transformed CD8+ T-cells were co-incubated with MAG-003-loaded target cells or with target cells loaded with homologous but unrelated peptide RABGAP1L-001 (SEQ ID NO:91), AXIN1-001 (SEQ ID NO:92), ANO5-001 (SEQ ID NO:93), TPX2-001 (SEQ ID NO:94), SYNE3-001 (SEQ ID NO:95), MIA3-001 (SEQ ID NO:96), HERC4-001 (SEQ ID NO:97), PSME2-001 (SEQ ID NO:98), HEATR5A-001 (SEQ ID NO:99) or CNOT1-003 (SEQ ID NO:100) or control peptide NYESO1-001 (SEQ ID NO:101), followed by IFN-γ release assay. Unloaded target cells and CD8+ T-cells alone served as controls. IFN-γ secretion from CD8+ T-cells is indicative of T-cell activation with cytotoxic activity.
As shown in FIGS. 5-7 all primary CD8+ T-cells transformed with TCRs of the present disclosure, after co-incubation with MAG-003-loaded target cells, released much higher levels of IFN-γ than that stimulated by unrelated peptide-loaded target cells, and the controls.

Molecule | binding affinity and stability towards HLA-A*0201 molecule (HLA-A*0201 molecule) | IFNγ release ([1]; Example 4, H1755, data not shown) | T-cell activation (IFN-γ release) [1] | IFNγ release [2] | IFNγ release [3] | T-cell activation (IFN-γ release) [3] | % NYESO1-001 TET-positive primary CD8+ T-cells (MHC/NYESO1-001 tetramer) [%] | T-cell activation (IFN-γ release) by healthy tissue cells [4] | T-cell activation (IFN-γ release) by healthy tissue cells ([4]; listed as R7P1 D5) | % MAG-003 TET-positive primary CD8+ T-cells (MHC/MAG-003 tetramer) [%] | IFNγ release [5] | EC50 (MHC/MAG-003 complex) [nM]
YLLEHVVRV (listed as Homo sapiens) [p286-1Y2L] | potent binding affinity and stability | – | – | – | – | – | – | – | – | – | – | –
B1 | – | increased IFNγ release | activity | basal levels of IFNγ release | IFNγ release was observed | activity | 0.87 | did not lead to significant TCR-mediated recognition and T-cell activation | no activation was observed | 7.99 | basal levels of IFNγ release | ~3
B2 | – | – | activity | basal levels of IFNγ release | IFNγ release was observed | activity | 0.87 | no activation was observed; also recorded: did not lead to significant TCR-mediated recognition and T-cell activation | – | 5.38 | basal levels of IFNγ release | –
